Biological target: T1, recombinant His-glucosaminidase (His-Gmd), 6-His tagged 53 kDa glucosaminidase subunit of S. aureus autolysin (Staphylococcus aureus, UniProt A7X0T9 776-1254)
T1 sequence: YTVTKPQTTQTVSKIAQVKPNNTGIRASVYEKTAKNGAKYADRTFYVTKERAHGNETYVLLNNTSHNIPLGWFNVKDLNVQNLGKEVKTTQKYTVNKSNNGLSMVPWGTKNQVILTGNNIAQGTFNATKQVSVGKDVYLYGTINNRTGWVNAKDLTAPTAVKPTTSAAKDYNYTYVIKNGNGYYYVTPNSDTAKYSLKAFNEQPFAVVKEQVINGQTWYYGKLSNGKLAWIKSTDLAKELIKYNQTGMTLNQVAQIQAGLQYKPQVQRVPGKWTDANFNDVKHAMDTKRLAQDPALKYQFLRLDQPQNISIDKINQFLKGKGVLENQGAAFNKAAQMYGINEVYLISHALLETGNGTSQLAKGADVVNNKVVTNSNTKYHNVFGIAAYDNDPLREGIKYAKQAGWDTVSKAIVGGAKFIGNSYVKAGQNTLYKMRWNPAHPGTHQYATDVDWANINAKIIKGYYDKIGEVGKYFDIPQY
Experiment: cell-based or functional assay

B1: monoclonal antibody 4A12 (mouse IgG1) (antibody, V domains shown)
VH: QVQLQQPGAELVGPGTSVKLSCKSSGYTFTKYWMHWLKQRPGQGLEWIGVIDPSDSYTNYNQKFKGKATLTVDTSSSTAYLQLSSLTSEDSAVYYCANYYGSYYDVMDFWGQGTSVTVSS
VL: DVQITQSPSYLAASPGETITINCRASKSISKYLAWYQEKPGKTNKLLICFGSTLQSGTPSRFSGSGSGTDFTLTISSLEPEDFATYYCQQHNEYPLTFGAGTKLELKR
- fold difference, mouse 4A12 against h4A12, in the minimum concentration able to achieve ~100% inhibition of Gmd activity: ~3 fold
